Source: patent publication US20210030857A1 (NGM BIOPHARMACEUTICALS, published 2021)
Numbering of substitutions follows the chain as printed. Each block holds one binder with its values, some of them ahead of it.

Key:
[1] = target: T1, human beta klotho protein (soluble, used in Biacore) (human, UniProt Q86Z14 53-997, limits assumed); assay: Biacore SPR, antibody captured on anti-mouse Fc, KLB as analyte (1.56-25 nM), 25 C
T1 construct: also called HuKLB; huKLB
T1 sequence: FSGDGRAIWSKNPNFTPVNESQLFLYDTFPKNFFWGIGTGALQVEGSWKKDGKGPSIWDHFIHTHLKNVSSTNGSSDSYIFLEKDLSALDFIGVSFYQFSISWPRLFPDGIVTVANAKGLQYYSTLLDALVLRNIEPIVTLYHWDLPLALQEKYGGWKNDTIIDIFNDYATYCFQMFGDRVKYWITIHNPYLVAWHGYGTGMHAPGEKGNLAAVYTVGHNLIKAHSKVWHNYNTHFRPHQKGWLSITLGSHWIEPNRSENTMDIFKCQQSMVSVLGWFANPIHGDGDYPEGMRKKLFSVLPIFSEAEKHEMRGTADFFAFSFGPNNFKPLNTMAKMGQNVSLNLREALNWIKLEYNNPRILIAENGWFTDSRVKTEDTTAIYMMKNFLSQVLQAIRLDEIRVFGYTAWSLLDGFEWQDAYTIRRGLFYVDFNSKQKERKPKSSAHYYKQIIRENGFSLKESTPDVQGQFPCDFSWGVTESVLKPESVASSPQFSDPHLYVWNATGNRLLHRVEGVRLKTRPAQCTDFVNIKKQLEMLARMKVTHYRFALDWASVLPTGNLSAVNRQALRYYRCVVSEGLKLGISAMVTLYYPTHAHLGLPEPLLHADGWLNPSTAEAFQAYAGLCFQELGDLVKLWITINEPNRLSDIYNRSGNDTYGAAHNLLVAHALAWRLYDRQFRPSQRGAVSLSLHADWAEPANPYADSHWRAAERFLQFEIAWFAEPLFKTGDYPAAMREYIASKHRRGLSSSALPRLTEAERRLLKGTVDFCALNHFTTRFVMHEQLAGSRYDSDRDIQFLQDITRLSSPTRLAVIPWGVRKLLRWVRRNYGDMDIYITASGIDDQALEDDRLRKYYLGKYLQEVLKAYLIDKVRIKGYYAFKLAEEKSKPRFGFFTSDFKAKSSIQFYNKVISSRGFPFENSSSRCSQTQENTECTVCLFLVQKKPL
Experimental: (§1) Binding affinity measurements were also made in additional Biacore based assays. For example, equilibrium dissociation constant (KD) measurements were carried out with purified antibodies to evaluate their binding to human beta klotho and cyno beta klotho. As mentioned above, anti-mouse Fc antibody (Sigma-Aldrich, St. Louis, Mo.) was immobilized on all four flow cells of a CM5 chip using amine coupling reagents (GE Healthcare LifeSciences, Piscataway, N.J.). Purified antibodies were captured (˜100 RUs) on flow cells 2, 3 and 4 using flow cell 1 as a reference. This was followed by injection of different concentrations of human or cyno beta klotho (1.56 nM to 25 nM, two-fold dilutions in PBS-P buffer) at a flow rate of 70 μL/min and the binding kinetics were evaluated at 25° C.

[2] = target: T2, cynomolgus monkey beta klotho protein (soluble, used in Biacore) (cynomolgus monkey (Macaca fascicularis), UniProt Q86Z14 53-996 (human entry), limits assumed); assay: as above
T2 construct: Protein in solution; also called Cyno KLB; cyKLB
T2 chain: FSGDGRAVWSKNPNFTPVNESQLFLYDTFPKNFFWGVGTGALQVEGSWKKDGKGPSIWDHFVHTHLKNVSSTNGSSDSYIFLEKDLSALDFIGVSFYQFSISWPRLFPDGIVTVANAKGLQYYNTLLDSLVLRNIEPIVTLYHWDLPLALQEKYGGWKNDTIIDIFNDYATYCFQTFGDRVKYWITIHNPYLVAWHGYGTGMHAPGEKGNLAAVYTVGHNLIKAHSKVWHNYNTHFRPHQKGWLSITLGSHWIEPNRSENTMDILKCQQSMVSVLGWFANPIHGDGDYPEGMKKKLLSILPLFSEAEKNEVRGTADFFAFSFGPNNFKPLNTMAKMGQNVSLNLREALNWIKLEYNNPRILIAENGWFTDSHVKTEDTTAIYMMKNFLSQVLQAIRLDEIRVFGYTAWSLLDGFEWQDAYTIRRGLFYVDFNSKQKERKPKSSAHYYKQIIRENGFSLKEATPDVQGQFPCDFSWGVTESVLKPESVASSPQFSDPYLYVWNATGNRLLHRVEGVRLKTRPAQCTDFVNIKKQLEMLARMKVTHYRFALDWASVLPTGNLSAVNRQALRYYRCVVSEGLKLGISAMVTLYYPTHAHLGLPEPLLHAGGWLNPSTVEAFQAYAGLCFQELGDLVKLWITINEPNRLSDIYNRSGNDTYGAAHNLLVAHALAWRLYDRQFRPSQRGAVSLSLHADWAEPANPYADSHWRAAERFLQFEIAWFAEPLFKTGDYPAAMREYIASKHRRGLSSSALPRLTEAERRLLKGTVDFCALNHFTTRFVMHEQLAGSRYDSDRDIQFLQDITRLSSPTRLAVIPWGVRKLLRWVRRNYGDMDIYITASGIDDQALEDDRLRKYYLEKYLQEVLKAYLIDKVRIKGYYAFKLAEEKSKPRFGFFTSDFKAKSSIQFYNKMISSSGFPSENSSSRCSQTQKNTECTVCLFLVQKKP
Experimental: as §1

[3] = target: human beta klotho / human FGFR1c receptor complex on cells (human, UniProt Q86Z14 1-1044; P11362 22-822); assay: cell-based or functional assay
Chain of human beta klotho / human FGFR1c receptor complex on cells (P11362 22-822 limits assumed, one chain of several): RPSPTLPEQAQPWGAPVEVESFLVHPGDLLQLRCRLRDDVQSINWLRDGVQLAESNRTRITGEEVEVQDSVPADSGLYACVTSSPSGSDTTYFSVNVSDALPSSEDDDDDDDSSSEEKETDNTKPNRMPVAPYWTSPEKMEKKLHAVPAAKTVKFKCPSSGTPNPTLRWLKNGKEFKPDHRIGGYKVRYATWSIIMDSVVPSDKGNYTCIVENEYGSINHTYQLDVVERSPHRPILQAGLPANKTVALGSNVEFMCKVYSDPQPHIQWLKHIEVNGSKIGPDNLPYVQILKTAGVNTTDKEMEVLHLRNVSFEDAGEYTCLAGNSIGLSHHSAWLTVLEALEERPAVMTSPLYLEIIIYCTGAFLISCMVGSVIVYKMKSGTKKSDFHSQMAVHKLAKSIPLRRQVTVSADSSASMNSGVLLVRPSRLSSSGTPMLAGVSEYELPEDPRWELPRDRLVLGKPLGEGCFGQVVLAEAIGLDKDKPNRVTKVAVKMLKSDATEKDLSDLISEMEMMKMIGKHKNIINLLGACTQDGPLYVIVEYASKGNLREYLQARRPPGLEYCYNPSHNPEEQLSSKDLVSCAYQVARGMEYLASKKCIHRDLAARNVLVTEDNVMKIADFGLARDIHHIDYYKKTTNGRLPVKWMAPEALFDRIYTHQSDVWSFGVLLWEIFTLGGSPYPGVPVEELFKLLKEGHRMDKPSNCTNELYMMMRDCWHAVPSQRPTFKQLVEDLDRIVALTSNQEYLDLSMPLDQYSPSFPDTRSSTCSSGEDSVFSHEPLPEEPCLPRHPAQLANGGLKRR

[4] = target: human beta klotho / human FGFR4 on L6 cells (human, UniProt Q86Z14 1-1044; P22455 22-802); assay: cell-based or functional assay
Chain of human beta klotho / human FGFR4 on L6 cells (P22455 22-802, one chain of several): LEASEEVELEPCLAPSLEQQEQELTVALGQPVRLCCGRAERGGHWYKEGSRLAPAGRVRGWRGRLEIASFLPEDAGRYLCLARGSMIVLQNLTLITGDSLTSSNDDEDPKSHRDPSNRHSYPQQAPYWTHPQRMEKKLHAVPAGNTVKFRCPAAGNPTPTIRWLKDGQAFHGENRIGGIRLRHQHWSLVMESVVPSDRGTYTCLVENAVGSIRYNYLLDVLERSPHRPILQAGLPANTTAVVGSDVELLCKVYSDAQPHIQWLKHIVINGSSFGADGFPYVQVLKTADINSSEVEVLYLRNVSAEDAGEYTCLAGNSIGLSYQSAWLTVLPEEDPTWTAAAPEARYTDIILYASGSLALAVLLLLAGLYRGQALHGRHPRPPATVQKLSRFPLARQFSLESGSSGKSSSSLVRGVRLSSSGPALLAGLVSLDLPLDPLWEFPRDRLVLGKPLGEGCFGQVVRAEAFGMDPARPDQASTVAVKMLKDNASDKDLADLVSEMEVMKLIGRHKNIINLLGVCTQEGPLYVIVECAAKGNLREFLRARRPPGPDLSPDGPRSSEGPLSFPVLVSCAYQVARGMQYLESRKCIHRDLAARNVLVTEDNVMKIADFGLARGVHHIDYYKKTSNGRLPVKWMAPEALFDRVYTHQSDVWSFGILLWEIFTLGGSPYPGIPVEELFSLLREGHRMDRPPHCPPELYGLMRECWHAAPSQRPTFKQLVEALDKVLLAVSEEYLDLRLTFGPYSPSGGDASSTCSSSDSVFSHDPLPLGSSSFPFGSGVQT

[5] = target: human beta klotho / human FGFR3c on L6 cells (human, UniProt Q86Z14 1-1044; P22607 23-806); assay: cell-based or functional assay
Chain of human beta klotho / human FGFR3c on L6 cells (P22607 23-806, one chain of several): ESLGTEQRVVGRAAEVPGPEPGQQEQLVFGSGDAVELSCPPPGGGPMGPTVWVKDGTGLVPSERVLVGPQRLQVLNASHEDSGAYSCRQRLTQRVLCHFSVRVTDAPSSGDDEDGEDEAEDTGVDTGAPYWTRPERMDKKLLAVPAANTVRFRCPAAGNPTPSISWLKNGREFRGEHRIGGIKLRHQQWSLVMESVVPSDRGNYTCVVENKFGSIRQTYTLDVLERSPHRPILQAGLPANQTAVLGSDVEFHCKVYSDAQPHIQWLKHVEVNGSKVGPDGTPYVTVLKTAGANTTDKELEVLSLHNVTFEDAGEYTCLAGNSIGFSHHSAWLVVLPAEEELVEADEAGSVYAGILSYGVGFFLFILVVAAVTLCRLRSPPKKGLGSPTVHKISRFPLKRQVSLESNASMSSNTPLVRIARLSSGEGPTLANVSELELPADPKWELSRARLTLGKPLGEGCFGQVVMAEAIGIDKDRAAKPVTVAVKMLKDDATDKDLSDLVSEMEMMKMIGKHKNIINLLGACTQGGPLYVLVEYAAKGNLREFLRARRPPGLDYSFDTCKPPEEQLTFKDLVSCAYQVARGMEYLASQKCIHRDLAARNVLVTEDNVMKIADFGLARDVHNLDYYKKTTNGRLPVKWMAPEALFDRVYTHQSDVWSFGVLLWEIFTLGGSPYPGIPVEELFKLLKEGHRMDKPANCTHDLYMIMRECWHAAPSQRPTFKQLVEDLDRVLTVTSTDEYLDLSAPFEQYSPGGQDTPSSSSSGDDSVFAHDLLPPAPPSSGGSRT

L6 huKLB/R1c reporter assay EC50 [3]: 0.28 nM
L6 huKLB/R4 reporter assay EC50 [4]: > 67 nM
L6 huKLB/R3c reporter assay EC50 [5]: > 67 nM
Kd [2]: 0.72 nM
B2: antibody 5H23 (antibody, V domains shown)
VH: QVQLQQSGPELVKPGALVKISCKASGYTFTSYDINWVKQRPGQGLEWIGWIYPGDGSTKYNEKFKGKATLTADKSSRTAYMQLSSLTSENSAVYFCARSDYYGSRSFAYWGQGTLVTVSA
VL: DIVLTQSPASLAVSLGQRATISCRASKSVSTSGYVYMHWNQQKPGQPPKLLIYLASYLESGVPARFSGSGSGTDFTLNIHPVEEEDAAIYYCQHSRDLTFPFGGGTKLEIK
notes: Murine monoclonal antibody from hybridoma; also called 5H23-Alexa647 (labelled form)

Kd [1]: 1.25 nM
Kd [2]: 2.9 nM
B3: antibody 1D19 (antibody, V domains shown)
VH: QVQPQESGPELVKPGALVKISCKASGYTFTRYDINWMKQRPGQGLEWIGWIYPGDSSTKFNENFKDKATLTADKSSSTAYMQLSSLTSENSTVYFCARSDYYGSRSFTYWGQGTLVTVSA
VL: B2 VL with V35S, N40Y, Y57N, I89T, D97E, T99P, F100Y, P101T
notes: Murine monoclonal antibody

Kd [1]: 1.2 nM
Kd [2]: 2.4 nM
B4: antibody 5C23 (antibody, V domains shown)
VH: B2 VH with L4P, Q6E, S31R, Q39K, K65E, R77S, A108V
VL: B2 VL with A9D, A12T, V35S, N40Y, Y57N, I89T, D97E, T99P, F100Y, P101T
notes: Murine monoclonal antibody

L6 huKLB/R1c reporter assay EC50 [3]: 0.39 nM
L6 huKLB/R4 reporter assay EC50 [4]: > 67 nM
L6 huKLB/R3c reporter assay EC50 [5]: > 67 nM
Kd [1]: 0.26 nM
Kd [2]: 0.44 nM
B7: antibody 4P5 (antibody, V domains shown)
VH: B2 VH with S31R, Q39K, G56D, R77S, A108V
VL: DILLTQSPASLAVSLGQRATISCRASKSVSTSGYSYMHWYQQKPGQPPKLLIYLASNLESGVPARFSGRGSGTDFTLNIHPVEEEDAATYYCHHSGELPYTFGGGTKLEIK
notes: Murine monoclonal antibody

Kd [1]: 0.89 nM
Kd [2]: 3.1 nM
B8: antibody 1C17 (antibody, V domains shown)
VH: QVQLQESGPGLVKPSQSLSLTCSVTGYSITSGYYWNWIRQFPGNKLEWMGYINYDGNSNYTPSLKNRISITRDTSKNQFFLKLNSVTPEDTATYYCARKGAYYSNYDSFDVWGTGTTVTVSS
VL: DIKMTQSPSSMYASLGERVTITCKASQDINSYLSWVQQKPGKSPKTLIYRANRLVDGVPSRFSGSGSGQDYSLTISSLEYEDMGIYYCLQYDEFPFTFGSGTKLEIK
notes: Murine monoclonal antibody

The next lines start with the binder.

B1: antibody 5F7 (antibody, V domains shown)
VH: B2 VH with L4P, Q6E, S31R, G56I, R77S, S84N, A108V
VL: B7 VL with L3V, R69S, H93Q, G96R, L108V
notes: Murine monoclonal antibody
Kd [1]: 1.7 nM
Kd [2]: 2.5 nM

B5: antibody 2L12 (antibody, V domains shown)
VH: B2 VH with S31R, Q39K, G56D, R77S, A108V
VL: B7 VL with L3V, A12P, M37L, R69S, H93Q
notes: Murine monoclonal antibody
L6 huKLB/R1c reporter assay EC50 [3]: 4.65 nM
L6 huKLB/R4 reporter assay EC50 [4]: > 67 nM
L6 huKLB/R3c reporter assay EC50 [5]: > 67 nM
Kd [1]: 0.22 nM
Kd [2]: 1.42 nM

B6: antibody 3L3 (antibody, V domains shown)
VH: B2 VH with L4P, Q6E, A16T, T58P, N61D, R77S, A108V
VL: B7 VL with L3V, M37V, H93Q
notes: Murine monoclonal antibody
Kd [1]: 1.14 nM
Kd [2]: 2.2 nM

B9: antibody 3N20 (antibody, V domains shown)
VH: QVQLQESGAELARPGASVKLSCKVSGYIFTNYGISWVKQRTGQGLEWIGEIYPRSGNTYYNEKFKGKATLTADMSSSTAYMDLRSLTSEDSAVYFCARHWDGVLDYFDYWGQGTSLTVSS
VL: DIVMTQSPSSLSVSAGEKVTMSCKSSQSLLNSGNQKNYLAWYQQKPGQPPKLLIYGASTRESGVPDRFTGSGSGTDFTLTISSVQAEDLAVYYCLNDHSYPFTFGAGTKLELK
notes: Murine monoclonal antibody
Kd [1]: 3.3 nM
Kd [2]: 3.52 nM
